From patent publication US9907791B2, “Ron inhibitors for use in preventing and treating bone loss” (UNIVERSITY OF UTAH RESEARCH FOUNDATION, priority 2014, dated 2018) come the findings set out here.

One test has as its system c-Src. Briefly: Western blot of osteoclast lysates, phospho-Src. It is filed as cell-based, mice. The method, then: Cells were serum starved (0.5% FBS) for 3 hours prior to lysate collection. Inhibitors were added 1 hour prior to lysis and MSP was added 15 min prior to lysis when indicated. Cells were washed with 1×PBS and harvested in lysis buffer (25 mM Tris-HCl, pH 7.5, 0.42 M NaCl, 1.5 mM MgCl2, 0.5 mM EDTA, 1 mM DTT, 25% sucrose, and 0.1% Triton X-100) plus 100× protease arrest (Bioscience, Bozeman, Mont.) and 100× orthovanadate. Primary antibodies used for immunoblotting include: anti-MSP (Santa Cruz, sc-6090, Dallas, Tex.) at a 1:250 dilution, anti-pan Akt (Cell Signaling, #4691S, Beverly, Mass.) at a 1:1000 dilution, anti-pan Erk (Cell Signaling, #4695, Beverly, Mass.) at a 1:1000 dilution, anti-phospho Akt (Cell Signaling, #9271 L, Beverly, Mass.) at a 1:500 dilution, anti-phospho Erk (Cell Signaling, #4370S, Beverly, Mass.) at a 1:500 dilution, anti-Src (Cell Signaling, #2110, Beverly, Mass.) at a 1:500 dilution, and anti-phospho Src (Y416) (Cell Signaling, #2113, Beverly, Mass.) at a 1:500 dilution. The secondary antibodies used were HRP-conjugated anti-goat IgG (Santa Cruz, Dallas, Tex.) and anti-rabbit IgG (Santa Cruz, Dallas, Tex.). Chemiluminescent signals were detected using Immun-Star HRP (BioRad, Hercules, Calif.).
On the technique in general: Immunoblotting shows a protein as a band on a membrane.

For another test, the system named is PyMT-MSP tumor cells. Briefly: Intratibial PyMT-MSP tumor-induced osteolysis. In kind it is in vivo, mice. The text has this: All procedures involving mice and experimental protocols were approved by the Institutional Animal Care and Use Committee (IACUC) of the University of Utah. The RonTK−/− mice which reside on the FVB background, were crossed with NOD.SCID mice for an immune-compromised mouse model. As a control, wild-type FVB mice were also crossed with NOD.SCID mice. The STK−/− mice, which are on a C57BL/6 background, were compared to wild-type C57BL/6 mice as controls. Mice for all experiments were 6 to 8 weeks of age. For intratibial injections, 1×10^5 (PyMTor DU4475) or 3×10^5 (MDA-MB-231) tumor cells were resuspended in 10 μL matrigel and injected into the right tibia of anesthetized female FVB (PyMT) or NOD.SCID mice carrying various alleles of RON. Osteolysis was assessed by X-ray radiography. Dissected hindlimbs from mice sacrificed at the final time point in each experiment were placed in the Kodak In-vivo Multispectral Imaging System FX and exposed to X-ray radiography at 35 kV for 100 sec. Excess tumor tissue was removed from the bones prior to X-ray. Osteolytic lesions were quantified using Image J software (NCBI). All images were compared to the contralateral leg as an internal control.
Hindlimb bones were excised from mice at the time of sacrifice and bones were fixed in 10% neutral-buffered formalin, decalcified in Formical-2000 (Decal Corporation, Tallman, N.Y.) for 8 days and embedded in paraffin for hematoxylin and eosin (H & E) or immunohistochemical staining. Osteoclast number was assessed as TRAP^+ multinucleated cells containing 4 or more nuclei and reported as TRAP^+ cells per field. Three sections per mouse and 5 fields per section were used for quantification with fields representing the entire length of the tibia. Tumor proliferation rate was reported as the number of cells which were positive for phospho-H3 staining compared to the number of unstained cells per field expressed as a percent. Three sections per mouse and 5 fields per section were used for quantification with analysis being restricted to within the bone marrow cavity. […]

B1: muRANK-Fc: murine RANKL antagonist (Amgen) (protein)
chain: VTPPCTQERHYEHLGRCCSRCEPGKYLSSKCTPTSDSVCLPCGPDEYLDTWNEEDKCLLHKVCDAGKALVAVDPGNHTAPRRCACTAGYHWNSDCECCRRNTECAPGFGAQHPLQLNKDTVCTPCLLGFFSDVFSSTDKCKPWTNCTLLGKLEAHQGTTESDVVCSSSMTLRRPPKEAQAYLPS
modifications: left off: a dimerising Fc or GST
As for B1, the “phosphorylated c-Src in WT osteoclasts” value in the test with c-Src is given as “decrease in phosphorylated c-Src”. In the test on PyMT-MSP tumor cells (Ron TK−/− mice, treatment began 3 days post tumor cell injection), the “MSP-driven osteolysis in Ron TK−/− mice” value is recorded as “did not reduce this further”. Besides, the “TRAP+ osteoclasts in tumor-bearing bones” value with PyMT-MSP tumor cells (TRAP staining of bone sections) was “lack of TRAP+ cells”. Besides, the “osteolysis from PyMT-MSP tumors” value in the test with PyMT-MSP tumor cells (WT mice, treatment began 3 days post tumor cell injection) is reported as “significant osteolysis even in the presence of the RANKL antagonist”.
